{"source": "patent US20160274120A1", "about": "“METHODS OF DETERMINING WHETHER THE WNT SIGNALING PATHWAY IS UPREGULATED IN A TUMOR” (ICAHN SCHOOL OF MEDICINE AT MOUNT SINAI, priority 2009, published 2016)", "molecules": {"B1": {"name": "DKK1: Dickkopf-1, secreted Wnt antagonist binding co-receptor LRP6; Flag-tagged, expressed from lentiviral vector (protein, UniProt O94907 32-266, looked up)", "Dickkopf-related protein 1": "TLNSVLNSNAIKNLPPPLGGAAGHPGSAVSAAPGILYPGGNKYQTIDNYQPYPCAEDEECGTDEYCASPTRGGDAGVQICLACRKRRKRCMRHAMCCPGNYCKNGICVSSDQNHFRGEIEETITESFGNDHSTLDGYSRRTTLSSKMYHTKGQEGSVCLRSSDCASGLCCARHFWSKICKPVLKEGQVCTKHRRKGSHGLEIFQRCYCGEGLSCRIQKDHHQASNSSRLHTCQRH", "modifications": "Flag tag", "notes": "Flag-tagged, expressed from lentiviral vector"}, "B2": {"name": "FRP1: secreted Frizzled Related Protein, Wnt antagonist inhibiting Wnt ligand-receptor interaction; HA-tagged, expressed from lentiviral vector (protein, UniProt Q8N474 32-314, looked up)", "Secreted frizzled-related …": "SEYDYVSFQSDIGPYQSGRFYTKPPQCVDIPADLRLCHNVGYKKMVLPNLLEHETMAEVKQQASSWVPLLNKNCHAGTQVFLCSLFAPVCLDRPIYPCRWLCEAVRDSCEPVMQFFGFYWPEMLKCDKFPEGDVCIAMTPPNATEASKPQGTTVCPPCDNELKSEAIIEHLCASEFALRMKIKEVKKENGDKKIVPKKKKPLKLGPIKKKDLKKLVLYLKNGADCPCHQLDNLSHHFLIMGRKVKSQYLLTAIHKWDKKNKEFKNFMKKMKNHECPTFQSVFK", "modifications": "HA tag", "notes": "HA-tagged, expressed from lentiviral vector"}}, "key": {"human sarcoma cells": {"system": "human sarcoma cells", "experiment": "Proliferation of sarcoma cells in vitro (1000 cells/60 mm, 10 days, crystal violet)", "format": "cell-based", "details": "A2984, HT1080 and HCT116 cells, lentiviral shRNA", "description": "FIGS. 16A-16F. Downregulation of CDC25A, a novel Wnt target gene, inhibits proliferation of human sarcoma cells in vitro. A. CDC25A is a direct target of Wnt signaling in sarcoma cells. Chromatin immunoprecipitation was conducted on DNA extracted from U-2 OS, a Wnt autocrine sarcoma cell line. Monoclonal antibody against β-catenin was used in immunoprecipitation. Axin 2, a known Wnt target gene, was used as a positive control. […] C. Downregulation of Wnt signaling (assayed by TCF4 reporter activity) in sarcoma cells expressing dnTCF4. Cells stably expressing TOP luciferase and a normalizer, renilla luciferase, were used in this assay. D. dnTCF expression induces growth arrest in sarcoma cells. Indicated human sarcoma cells were stably infected with dnTCF or an empty vector control and selected in puromycin for 3 days. Cells were plated at 1000 cells/60 mm\ndensity and cultured for 10 days. […] E Knockdown of CDC25A or c-myc induces growth arrest in sarcoma cells. HCTZ 16, a human colon cancer cell line was used for comparison. Indicated cells were stably infected with either empty vector control or shRNA specific for CDC25A or c-myc and selected in puromycin and plated at 1000 cells/60 mm plate and cultured for 10 days. Cells were fixed and stained with crystal violet. F. Western blotting to show specific downregulation of CDC25A or c-myc after shRNA expression in indicated cells. […]"}, "NSCLC cells": {"system": "NSCLC cells", "experiment": "Cell growth analysis assay (crystal violet staining) of NSCLC cells", "format": "cell-based, human", "details": "stable DKK1 expression", "from_the_text": "Transduced and marker selected cells were trypsinized, counted and 1-2×10^4 cells plated into 60 mm tissue culture dishes. At 2-3 weeks, cells were washed with PBS, fixed in 10% methanol/acetic acid solution and stained with 1% crystal violet."}, "axin2": {"system": "axin2", "experiment": "Real time PCR quantification of axin2 mRNA expression in NSCLC cells", "format": "cell-based, human", "details": "around 30% of Wnt activated NSCLC lines (summary)", "description": "Total RNA was isolated from cells using the Trizol Reagent (Invitrogen) according to the manufacturer's protocol. Semi-quantitative RT-PCR screen was performed using One Step RT-PCR Kit (Invitrogen) according to the manufacturer's protocol. PCR products were separated on 1% agarose gel. 5 μg total RNA was reverse transcribed using Superscript II reverse transcriptase (Invitrogen). Quantitative PCR was performed using SybrGreen 2× master mix (Roche) on a MJ Opticon or Stratagene MxPro3005. 50 ng cDNA were amplified as follows: 94° C. for 15 min, 94° C. for 15 s, 60° C. for 30 s, 72° C. for 1 min. Steps 2 through 4 were repeated for 40 cycles. Each reaction was performed in duplicate, and results of 3 independent experiments were used for statistical analysis. Relative mRNA expression levels were quantified using the ΔΔC(t) method (Pfaffl, 2001). Results were normalized to those for TATA Binding Protein (TBP). Primer sequences can be found in Tables 4 and 5."}, "TCF reporter activity": {"system": "TCF reporter activity", "experiment": "TCF mediated luciferase reporter activity (TOP/FOP) in NSCLC cell lines", "format": "cell-based, human", "details": "around 30% of Wnt activated NSCLC lines (summary)", "description": "24 hours before infection, stable reporter cell lines expressing TOP or FOP TCF luciferase and renilla luciferase were plated in 6 well plates at I×IO^5 cells/well. The following day cells were infected with lentiviruses expressing different Wnt antagonists, selected with 2 μg/ml puromycin for 3 days, lysed and processed for luciferase reporter assay using the dual luciferase reporter Kit (Promega) according to the manufacturer's protocol. Luciferase reporter activity was calculated by dividing the ratio TOP/RL by the FOP/RL ratio. Results were normalized to the results with vector transduced cultures.\n(§1) analysis, cells were co-infected with TOP or FOP firefly luciferase mixed with a lentivirus expressing renilla luciferase (RL) used to normalize for infection efficiency (1:20-1:40 ratio). To assess the effects of FRP1 and DKK1 on TCF luciferase reporter activity, stable reporter cell lines were plated in 6 well plates and infected with vector, FRP1 or DKK1 lentiviruses. Cells were selected for 3 days with puromycin, lysed and processed for dual luciferase analysis. To generate stable inducible lines, cells were infected consecutively with tetracycline trans-activator (tTa) expressing lentivirus, selected for two weeks with 5-10 μg/ml blasticidin, followed by a second infection with lentiviruses expressing inducible FRP1, DKK1, DNTCF-4 or DNTCF-4-mOrange or empty vector, and selected for 4-7 days in 2 μg/ml puromycin in the presence of 10 ng/ml doxycycline. For induction of the antagonists, cells were trypsinized, washed with PBS and plated into 10 cm plates in the presence or absence of doxycyclin. Control cells expressing tTa or empty vector were processed in the same way. All infections were performed for 16 hr in the presence of 8 μg/ml polybrene."}, "[1]": {"system": "autocrine Wnt NSCLC cells", "experiment": "Sensitization of NSCLC cells to cisplatin (colony growth, annexin/PI FACS)", "format": "cell-based, human", "details": "H23 (autocrine Wnt) vs A549 cells, lentiviral DKK1, cisplatin", "description": "FIGS. 13A and 13E. […] (A and B) Effects of cisplatin on growth of H23 (A) and A549 (B) cells infected with vector (VEC) or DKK1 expressing lentiviruses. 5×10^3 H23 and A549 cells expressing vector or DKK1 were plated in 60 mm plates. Cells were treated for 4 hr with 5 or 20 μM cisplatin or saline as control and colonies were visualized 2 weeks later by crystal violet staining. (C and D) Effects of cisplatin on apoptosis of H23 (C) and A549 (D) cells infected with vector (VEC) or DKK1 expressing lentiviruses and treated for 3 days with increasing concentrations of cisplatin. Adherent and floating cells were collected and processed for FACS analysis using annexin/PI. The percentage of annexin positive cells in vector or DKK1 infected cells is represented in the line graph. Results are the mean±SD of 3 independent experiments. Statistical two-way analysis of variance (ANOVA) tests with Bonferroni multiple testing corrections were performed. *−p<0.05, **−p<0.01, ***−p<0.001. […] Cell lysates were collected every 24 hr and analyzed by immunoblot. […]\nFor DNA content analysis, cells were trypsinized, combined with floating cells, washed with PBS, stained with propidium iodide (PI), using the CycleTEST Plus DNA reagent kit (Becton Dickinson) following the manufacturer instructions, and subjected to FACS analysis. […] Results were analyzed using Cell Quest 3.2 software (Becton Dickinson)."}, "uncomplexed β-catenin": {"system": "uncomplexed β-catenin", "experiment": "Uncomplexed β-catenin, GST-E-cadherin pull-down and immunoblot in NSCLC cells expressing Wnt antagonists", "format": "cell-based, human", "details": "for uncomplexed β-catenin level: H1819 NSCLC cells, stable (constitutive) expression", "description": "FIGS. 2A-2E. Effects of FRP1 and DKK1 inhibition on Wnt/β-catenin signaling and growth of human NSCLC cells. (A) Effects of constitutive expression of FRP1 and DKK1 on uncomplexed β-catenin in H1819 NSCLC cell line. FRP1 and DKK1 expression was determined by immunoblot analysis as described in Materials and methods. (B) Analysis of NSCLC lines for uncomplexed β-catenin using regulatable expression of HA-tagged FRP1 (upper panel) and Flag-tagged DKK1 (lower panel). NSCLC cells expressing Tet regulatable FRP1-HA or DKK1-Flag were generated as described in supplemental Materials and methods. Expression of FRP1-HA or DKK1-Flag was induced by removal of dox from the culture medium. Cells expressing tetracycline Trans-activator (tTa) were used as control. Analysis of uncomplexed β-catenin was performed as described in Materials and methods using 1 mg total cell lysates, except for A427 cells, where 0.1 mg cell lysate was used. FRP1 and DKK1 expression was determined by immunoblot analysis as described in Materials and methods. (C) FRP1 and DKK1 mediated inhibition of TCF luciferase reporter activity in NSCLC cell lines. Luciferase reporter activity was calculated by dividing the TOP/RL ratio by the FOP/RL ratio. Results were normalized to the results with vector transduced cultures. The values represent the mean±SD from two independent experiments. (D) Real time PCR quantification of FRP1 and DKK1 effects on axin2 mRNA expression. H23, Al 146 and H1819 cells were infected with vector (VEC), FRP1-HA or DKK1-Flag lentiviruses. qRT-PCR was performed as described in supplemental Materials and methods. Relative mRNA expression levels were quantified using the ΔΔC(t) method (Pfaffl, 2001). (E) Effects of DKK1 on cell growth. A549, H23, H1819 and A427 cells were infected with lentiviruses expressing vector (VEC) or DKK1-Flag and 2×10^4 cells were plated into 60 mm tissue culture dishes. Cultures were visualized using crystal violet staining 2-3 weeks after plating. Expression of flagged tagged DKK1 was assessed by immunoblot analysis as described in Materials and methods.\nGST-E-cadherin binding and immunoblot analysis was performed as previously described (Bafico et al, 1998), with the exception that for human tumor samples it was done with freshly frozen or stored tissue under cold, mild-detergent conditions. Specifically, the following protocol to assay for uncomplexed (active) β-catenin in human tumor samples was used:\nas §1"}, "[2]": {"details": "H23 and A1146 tumor lines, inducible system, low expression in the presence of dox"}, "[3]": {"details": "around 30% of Wnt activated NSCLC lines (summary)"}}, "data": [{"molecule": "CDC25A shRNA: shRNA specific for CDC25A, 5′CCAGGGAATTTCATTCCTC3′ (SEQ ID NO: 62) (CCAGGGAAATTTCATTCCTC; chemistry not fully specified)", "values": [{"measurement": "proliferation", "setting": "human sarcoma cells", "result": "inhibited proliferation to varying degrees"}]}, {"molecule": "B1", "values": [{"measurement": "cell growth / proliferation vs vector control", "setting": "NSCLC cells; A549 (no Wnt activation) and A427 (β-catenin mutant) cells", "result": "not associated with any detectable growth inhibition"}, {"measurement": "cell growth / proliferation vs vector control", "setting": "NSCLC cells; H23 and H1819 tumor cells", "result": "antiproliferative effects"}, {"measurement": "expression of the Wnt target gene axin2", "setting": "axin2", "result": "dramatic decrease"}, {"measurement": "TCF reporter activity", "setting": "TCF reporter activity", "result": "dramatic decrease"}, {"measurement": "sensitization to cisplatin treatment", "setting": "[1]", "result": "specifically sensitizes"}, {"measurement": "uncomplexed β-catenin levels", "setting": "uncomplexed β-catenin; H23 and A1146 cells, full induction (dox removed)", "result": "further reduced"}, {"measurement": "uncomplexed β-catenin levels", "setting": "uncomplexed β-catenin; [2]", "result": "decrease"}, {"measurement": "uncomplexed β-catenin level", "setting": "uncomplexed β-catenin", "result": "marked decrease"}, {"measurement": "uncomplexed β-catenin levels", "setting": "uncomplexed β-catenin; H2347, H358 or A427 cells", "result": "no effect"}, {"measurement": "uncomplexed β-catenin levels", "setting": "uncomplexed β-catenin; [3]", "result": "dramatic decrease"}]}, {"molecule": "B2", "values": [{"measurement": "expression of the Wnt target gene axin2", "setting": "axin2", "result": "dramatic decrease"}, {"measurement": "TCF reporter activity", "setting": "TCF reporter activity", "result": "dramatic decrease"}, {"measurement": "uncomplexed β-catenin levels", "setting": "uncomplexed β-catenin; [2]", "result": "significant reduction"}, {"measurement": "uncomplexed β-catenin level", "setting": "uncomplexed β-catenin", "result": "marked decrease"}, {"measurement": "uncomplexed β-catenin levels", "setting": "uncomplexed β-catenin; H2347, H358 or A427 cells", "result": "no effect"}, {"measurement": "uncomplexed β-catenin levels", "setting": "uncomplexed β-catenin; [3]", "result": "dramatic decrease"}]}]}
